Here are results for eight molecules from patent US5807824A, “C5A receptor antagonists having substantially no agonist activity” (priority 1995, dated 1998).

Experiment [1] has as its target T1, C5a receptor (Homo sapiens, UniProt P21730).
T1 construct: Neutrophils were purified from human peripheral blood; endogenous in cells; host or cells: neutrophils from human peripheral blood
T1 sequence (P21730 1-350): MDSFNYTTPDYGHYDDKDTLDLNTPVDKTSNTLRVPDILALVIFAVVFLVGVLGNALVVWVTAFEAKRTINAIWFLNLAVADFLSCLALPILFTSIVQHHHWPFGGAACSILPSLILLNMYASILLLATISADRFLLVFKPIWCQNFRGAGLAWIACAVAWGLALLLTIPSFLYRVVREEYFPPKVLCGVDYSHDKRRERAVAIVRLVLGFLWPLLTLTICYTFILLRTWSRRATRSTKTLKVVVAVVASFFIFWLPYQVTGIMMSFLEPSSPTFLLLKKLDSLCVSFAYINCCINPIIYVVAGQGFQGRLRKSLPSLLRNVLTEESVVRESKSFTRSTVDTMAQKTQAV
Kind of experiment: C5a induced Ca++ rise assay in fura-2 loaded neutrophils. It counts as cell-based. Conditions: for IC50 / EC50: Table 6, Example 10 comparison with decapeptide; for Concentration up to which tested with agonist activity not detected: calcium rise assay. An excerpt:
The antagonism of the instant C5a analogues may be quantified as an IC50 in the calcium rise assay disclosed in Seligmann et al., Agents and Actions 21:375-378 (1987), described in detail in Example 7.
See Hugli et al., CRC Crit. Rev. Immunol. 1:321-326 (1981) and PCT WO 92/10205. A quantitative measure of this property may also be obtained using the calcium rise assay disclosed in Seligmann et al., supra, also described in Example 7. EC50 is a measure of agonistic activity.
Recombinant human C5a was dissolved in Hanks buffer containing 0.01% Tween-20, and all stock dilutions of C5a were made in this buffer. The acetoxymethyl ester of fura-2 (fura 2AM, Molecular Probes) was dissolved in DMSO. Neutrophils were purified from human peripheral blood by sedimentation in 6% hetastarch (HESPAN, DuPont, Waukegan, Ill., followed by counter flow elutriation as described in Chapman-Kirkland et al., J. Immunol. Meth. 142:95-104 (1991). Purified cells (2×10^6/ ml) were mixed with 0.2 uM fura- 2AM and incubated for 30 min at 37° C. in HEPES buffered Hanks solution without calcium or magnesium. Fifteen minutes before the assay, the cell suspension was transferred to a curvette containing a stir bar and calcium was added to 1 mM. The cell suspension was incubated with stirring at 37° C. Assays were terminated within 5 h of cell purification and a standard control response was obtained periodically to insure that the cell responses were not changing over the time of the experiment. The amount of fluorescence was determined using an SLM 8000 spectrofluorometer (SLM-Aminco Instruments, Urbana, Ill.). Curvettes were placed in the fluorometer and after obtaining a baseline for 10 sec, the C5a receptor antagonists to be tested for antagonistic properties were added and any change in fluoresence excitation ratio of 340 nm/380 nm (emission of 510 nm) was measured. Forty seconds after analogue addition, a challenge dose of C5a was added to a final concentration of 100 pM and the resulting change in excitation ratio was measured.
IC50 values were used as a measure of antagonist potency. These values are defined as the concentration of C5a analogue needed to reduce the calcium rise response of the 100 pM C5a challenge dose by 50%. EC50 values were used as a measure of agonist potency. […]

Experiment [2] concerns the target T1, C5a receptor. Kind of experiment: Receptor binding assay: displacement of [125I]Bolton-Hunter labelled C5a from PMNL membranes. The method, then:
C5a and C5a receptor antagonists were tested for their affinity for the C5a receptor. […] PMNLs were resuspended in Hanks balanced salt solution, without Ca^++ and Mg^++ and which contained 10 mM HEPES at pH 7.3, 2.5 mM MgCl2, 100 units/ml DNAse I, 0.1 mM PMSF, 10 μg/ml aprotonin and 10 μg/ml leupeptin. They were then equilibrated at 400 psi for 20 min at 4° C. in a nitrogen cavitation bomb. After evacuation into 3 volumes 0.5M KHCO3 containing 25 mM EDTA and the protease inhibitors listed above, the gelatinous material was removed with forceps and the mixture was centrifuged at 400×g for 10 min at 4° C. The resulting supernatant was centrifuged at 50,000×g for 60 min at 4° C. The pellets from the aliquots representing 200×10^6 cells were stored at -70° C. For binding studies, these membranes were resuspended at an equivalent of 20×10^6 cells/ml in 50 mM HEPES at pH 7.3, containing 1 mM CaCl2, 5 mM MgCl2, 0.1 mM PMSF, 0.1% bacitracin and 0.5% BSA.
Nonspecific binding was determined in the presence of 10 nM unlabelled C5a. The binding reaction was initiated by the addition of the PMNL membranes and was continued for 120 min at 4° C. Bound and free radioactivity were separated by vacuum filtration through GF/C glass fiber filters (Whatman), pretreated for 90 min with 0.05% PEI (polyethyleneimine) using a Cell Harvester (Brandel, Gaithersburg, Md.). Filters were washed with 3×5 ml of ice-cold 5 mM Tris buffer at pH 7.4 and counted in a multiwell Gamma counter (Genesys). Data were analyzed using the non-linear regression analysis program, RS/1 (Bolt, Beranek and Newman, Boston) and expressed as IC50 values. The results are set forth below in Table 4 as Ki values using the Cheng-Presoff equation. See Braunwalder et al., supra.
On the technique in general: Loss of bound radioactivity is the signal in a displacement assay; it reports binding, not function.

Experiment [3] concerns C5a-induced enhancement in vascular permeability. As to the kind of experiment: Rabbit dermal model of inflammation ([125I]-BSA exudation at intradermal sites). It counts as in vivo, New Zealand White rabbits. On the procedure: All experiments were performed on male New Zealand White rabbits weighing 2.5-3.0 kg. The backs of the rabbits were shaved and 40-50 skin sites were designated with markers of different colors. Different stimuli (i.e., C5a, C5a analogue, C5a+C5a analogue, vehicle control, etc.) were injected intradermally at 0.1 ml/site using a sterile, disposable, 26 gauge, 0.5 in. needle and 1.0 cc tuberculin syringe. I.D. injections were administered in replicates of six, roughly 45 minutes before euthanization. C5a alone was injected at a dose of 50 ng/site, and the C5a receptor antagonists were co-injected at various concentrations with the same dose of C5a. At 20 minutes prior to euthanization, 18-36 uCi of [125I]-labeled bovine serum albumin in 1.0 ml physiological saline were introduced into the systemic circulation via the marginal auricular vein. At 45 minutes, the rabbit was euthanized with an I.V. overdose of sodium pentobarbital. […]
After death, the dorsal skin was excised and pinned to a wooden dissecting board. […] This procedure reduced variation among skin sites and decreased background radioactivity. […] Injection sites were then analyzed for their radioactive content using a Gamma Counter (Genesys).

Experiment [4] deals with C5a-induced neutropenia. As to the kind of experiment: C5a-induced neutropenia in the rabbit. The format is in vivo, New Zealand White rabbits. Particulars: i.v. bolus; for Inhibition of C5a-induced neutropenia versus vehicle-treated rabbits: 100 ng C5a. The method, then: All experiments were performed on male New Zealand White rabbits weighing 2.5-3.0 kg. Rabbits were anesthetized with 10 mg/kg xylazine and 50 mg/kg ketamine administered in combination intramuscularly. A 25 gauge butterfly catheter was inserted in the lateral ear vein to use for infusions. Each blood sample (0.2 ml) was collected from the central ear artery into a plastic syringe fitted with a 25 gauge, 5/8 inch needle and charged with 7.5% EDTA as an anticoagulant. Blood was immediately expressed into a microcentrifuge tubes containing 10 microliters of 7.5% EDTA. An initial arterial blood sample (#1) was obtained and immediately thereafter vehicle or the C5a analogue of Example 8 was infused intravenously (bolus injection). Twenty seconds later, a second blood sample (#2) was obtained and twenty seconds thereafter 100 ng of C5a in 0.2 ml were infused intravenously (bolus injection). Twenty seconds later, a third blood (#3) sample was taken. Thirty minutes later, a second round of blood sample (#4)----20 seconds--C5a infusion--20 seconds--blood sample (#5) was performed. Blood samples were evaluated by automated hematologic analysis (Technicon H*1) using software specific for rabbit blood. Reductions in neutrophil counts (number per milliliter) induced by C5a(C5a-induced neutropenia, determined by comparing blood sample #3 to #2 and #5 to #4) were compared between vehicle-treated and C5a analogue-treated animals.

Setting [5] is: Table 4, [125I]BH-C5a 4.0 pM, PMNL membranes, Cheng-Prusoff.
The mark [6] stands for this setting: Table 6, Example 10 comparison with decapeptide.

Where a SMILES comes first, the peptide text is derived from it.

In the case of `CC[C@H](C)[C@H](N)C(=O)N[C@@H](CO)C(=O)N[C@@H](Cc1ccccc1)C(=O)N[C@@H](CCCCN)C(=O)N[C@@H](CC(=O)O)C(=O)N[C@@H](CCSC)C(=O)N[C@@H](CCC(N)=O)C(=O)N[C@@H](CC(C)C)C(=O)NCC(=O)N[C@@H](CCCNC(=N)N)C(=O)O` [Decapeptide, reference compound] (H-ISFKDMQLGR-OH), the “Agonist / antagonist character” value in experiment [1] (stated in words) is “significant agonist activity”.

B1: C5a (1-70, T1M, C275, M7OC) (protein, UniProt P01031 678-747, looked up, variant T1M C27S M70C)
chain: MLQKKIEEIAAKYKHSVVKKCCYDGASVNNDETCEQRAARISLGPRCIKAFTECCVVASQLRANISHKDC
modifications: C5a anaphylatoxin
On to B1, for which affinity in experiment [2] (setting [5]) was put at a Ki of 0.4 nM. Moreover, affinity in experiment [2] (setting [6]) was put at a Ki of 0.35 nM. Further, in experiment [1], the IC50 – broadly, the concentration at which inhibition is half-maximal – amounted to 859 nM and the Concentration up to which tested with agonist activity not detected was above 1 µM.

B2: C5a (1-68, T1M, C27S, K68C) (protein, UniProt P01031 678-745, looked up, variant T1M C27S K68C)
chain: MLQKKIEEIAAKYKHSVVKKCCYDGASVNNDETCEQRAARISLGPRCIKAFTECCVVASQLRANISHC
modifications: C5a anaphylatoxin
As to B2, the Ki (as a rule, the equilibrium dissociation constant of an inhibitor or competing ligand from its target) in experiment [2] (setting [6]) came to 0.06 nM. Also, in experiment [1], the 50% inhibitory concentration (IC50) was found to be 84 nM.

B3: C5a (1-72, T1M, C27S, L72C) (protein, UniProt P01031 678-751, looked up, variant T1M C27S L72C)
C5a anaphylatoxin: MLQKKIEEIAAKYKHSVVKKCCYDGASVNNDETCEQRAARISLGPRCIKAFTECCVVASQLRANISHKDMQCGR
modifications: C5a anaphylatoxin truncated to residues 1-72
Regarding B3, the results for the Ki in experiment [2] (setting [5]) and in experiment [2] (setting [6]) were 0.9 nM and 0.15 nM, respectively. In experiment [1], this molecule registered an IC50 of 621 nM. The Concentration up to which tested with agonist activity not detected in experiment [1] was above 1.5 µM.

B4: C5a (1-73, T1M, C27S, G73C) (protein, UniProt P01031 678-751, looked up, variant T1M C27S G73C)
C5a anaphylatoxin: MLQKKIEEIAAKYKHSVVKKCCYDGASVNNDETCEQRAARISLGPRCIKAFTECCVVASQLRANISHKDMQLCR
modifications: C5a anaphylatoxin truncated to residues 1-73
notes: agonist, included for comparison
In experiment [2] (setting [6]), B4 returned a Ki of 0.03 nM. In addition, a half-maximal effect in experiment [1] (EC50) was put at 0.6 nM.

B5: C5a (1-71, T1M, C27S, H67F, Q71C) (protein, UniProt P01031 678-751, looked up, variant T1M C27S H67F Q71C)
C5a anaphylatoxin: MLQKKIEEIAAKYKHSVVKKCCYDGASVNNDETCEQRAARISLGPRCIKAFTECCVVASQLRANISFKDMCLGR
modifications: C5a anaphylatoxin truncated to residues 1-71
For the molecule B5, the affinity in experiment [2] (setting [5]) corresponds to a Ki of 0.1 nM. Moreover, the “Concentration up to which tested with agonist activity not detected” value in experiment [1] was above 0.8 µM.

B6: C5a: human C5a, a 74-amino acid polypeptide; recombinant human C5a used as reference agonist (protein, UniProt P01031 678-751, looked up)
C5a anaphylatoxin: TLQKKIEEIAAKYKHSVVKKCCYDGACVNNDETCEQRAARISLGPRCIKAFTECCVVASQLRANISHKDMQLGR
modifications: C5a anaphylatoxin
With B6, in experiment [1], the EC50 (usually the concentration giving half of the maximal effect) stood at 0.07 nM.

B7: C5a (1-71, T1M, C27S, Q71C) (protein, UniProt P01031 678-751, looked up, variant T1M C27S Q71C)
C5a anaphylatoxin: MLQKKIEEIAAKYKHSVVKKCCYDGASVNNDETCEQRAARISLGPRCIKAFTECCVVASQLRANISHKDMCLGR
modifications: C5a anaphylatoxin
B7: the results for the Ki in experiment [2] (setting [5]) and in experiment [2] (setting [6]) were 0.2 nM and 0.04 nM, respectively. The molecule also had an IC50 in experiment [1] of 51 nM. Besides, the “Concentration up to which tested with agonist activity not detected” value in experiment [1] is above 3 µM. Moreover, in experiment [3] (analogue at 175 ng/site intradermally), the “Pro-inflammatory reaction (agonist properties in vivo)” value was “did not cause a pro-inflammatory reaction”. The “ID50 (dose causing 50% reduction in radioactivity produced by C5a)” value in experiment [3] (co-injected intradermally with 50 ng C5a/site) was 70 ng/site. Besides, the “Effect on baseline neutrophil counts (agonistic, C5a-like properties)” value in experiment [4] (before C5a challenge) is reported as “did not alter baseline neutrophil counts from normal”. The “Inhibition of C5a-induced neutropenia versus vehicle-treated rabbits” value in experiment [4] (30-minute C5a challenge interval) is recorded as 41%; in experiment [4] (40-second C5a challenge interval) it was 67%.
